The term Kd denotes the free concentration of one partner at which half of the binding sites on the other are occupied at equilibrium, for simple one-to-one binding.

Data on two molecules can be found in paper PMC7545097, “Mapping the native interaction surfaces of PREP1 with PBX1 by cross-linking mass-spectrometry and mutagenesis” (Scientific Reports, 2020).

Holding throughout (settings): both partners purified
The target in one assay is T1, PBX1Δ43-55 (human, UniProt P40424 1-430, Δ43-55).
T1 construct: PBX1, residues 1-430, with an internal deletion; source: E. coli, purified
T1 sequence (looked up): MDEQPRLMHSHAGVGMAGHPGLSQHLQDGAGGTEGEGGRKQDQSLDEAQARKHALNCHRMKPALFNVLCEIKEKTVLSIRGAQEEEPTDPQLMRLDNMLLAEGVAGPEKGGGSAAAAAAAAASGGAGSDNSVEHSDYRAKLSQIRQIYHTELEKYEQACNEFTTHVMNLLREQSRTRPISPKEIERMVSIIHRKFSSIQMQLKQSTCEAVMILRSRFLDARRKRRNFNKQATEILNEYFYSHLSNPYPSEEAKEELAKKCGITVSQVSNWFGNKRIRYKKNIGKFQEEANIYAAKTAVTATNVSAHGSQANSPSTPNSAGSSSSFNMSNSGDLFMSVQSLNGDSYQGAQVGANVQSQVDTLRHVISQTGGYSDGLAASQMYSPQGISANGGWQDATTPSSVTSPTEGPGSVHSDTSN
Kind of assay: time-resolved fluorescence immunoassay (TR-FIA); plate coated with monoclonal anti-PBX1; PBX1 pre-incubated with PREP1 or MEIS1 for 1 h on ice, 10 µg/mL in 1% BSA PBS, 1 h at room temperature on the plate; detected with anti-PREP1 or biotinylated anti-MEIS1/2 and Eu^3+ conjugates; normalised to the wild-type protein taken as 1.

Assay [1] deals with T2, N-terminal GST-fused wild-type PREP1 (UniProt P55347 1-436).
T2 construct: PREP1 (PKNOX1), residues 1-436; Detected through GST in the ELISA; also called GST-fused PREP1; source: E. coli, purified; not shown: GST, N-terminal, kept
T2 sequence (looked up): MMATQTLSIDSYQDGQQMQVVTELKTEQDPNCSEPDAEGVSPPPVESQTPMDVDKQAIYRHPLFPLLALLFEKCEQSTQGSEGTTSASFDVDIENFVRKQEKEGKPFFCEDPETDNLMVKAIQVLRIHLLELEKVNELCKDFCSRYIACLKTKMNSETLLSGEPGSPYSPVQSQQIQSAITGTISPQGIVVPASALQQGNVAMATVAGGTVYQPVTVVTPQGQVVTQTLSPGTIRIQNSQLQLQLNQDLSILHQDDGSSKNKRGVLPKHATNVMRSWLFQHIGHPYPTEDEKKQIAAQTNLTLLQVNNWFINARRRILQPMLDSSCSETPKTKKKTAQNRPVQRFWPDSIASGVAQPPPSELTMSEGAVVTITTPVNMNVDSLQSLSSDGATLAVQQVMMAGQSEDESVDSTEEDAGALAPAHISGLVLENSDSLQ
Kind of assay: ELISA; PBX1 wild-type coated at 0.1 µM in 100 mM Tris–HCl pH 7.5; GST-fused proteins at 0.23 nM to 0.5 µM, 1 h at 37 °C; anti-GST detection; GST signal subtracted; one-site binding model. (In general: In an ELISA, binding on a coated surface is turned into a signal by an enzyme label.)

The next assay concerns the target T3, PREP1 L66A (UniProt P55347 1-436, L66A).
T3 construct: PREP1 (PKNOX1), residues 1-436
T3 sequence (looked up): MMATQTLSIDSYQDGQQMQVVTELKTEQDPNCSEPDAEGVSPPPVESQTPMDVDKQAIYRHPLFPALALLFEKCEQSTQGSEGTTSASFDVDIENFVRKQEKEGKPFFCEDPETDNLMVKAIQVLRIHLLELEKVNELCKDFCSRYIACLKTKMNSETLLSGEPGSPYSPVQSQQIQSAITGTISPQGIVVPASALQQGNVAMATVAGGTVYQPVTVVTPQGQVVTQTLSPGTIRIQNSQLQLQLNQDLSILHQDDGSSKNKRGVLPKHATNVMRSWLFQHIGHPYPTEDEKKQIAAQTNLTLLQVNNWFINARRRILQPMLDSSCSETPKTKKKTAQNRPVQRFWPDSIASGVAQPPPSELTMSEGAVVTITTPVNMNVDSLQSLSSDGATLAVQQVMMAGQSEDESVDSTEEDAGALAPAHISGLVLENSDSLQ
Kind of assay: time-resolved fluorescence immunoassay (TR-FIA); plate coated with monoclonal anti-PBX1; PBX1 pre-incubated with PREP1 or MEIS1 for 1 h on ice, 10 µg/mL in 1% BSA PBS, 1 h at room temperature on the plate; detected with anti-PREP1 or biotinylated anti-MEIS1/2 and Eu^3+ conjugates; normalised to the wild-type protein taken as 1.

The target of another assay is T4, PREP1 L129A (UniProt P55347 1-436, L129A).
T4 construct: PREP1 (PKNOX1), residues 1-436
T4 sequence (looked up): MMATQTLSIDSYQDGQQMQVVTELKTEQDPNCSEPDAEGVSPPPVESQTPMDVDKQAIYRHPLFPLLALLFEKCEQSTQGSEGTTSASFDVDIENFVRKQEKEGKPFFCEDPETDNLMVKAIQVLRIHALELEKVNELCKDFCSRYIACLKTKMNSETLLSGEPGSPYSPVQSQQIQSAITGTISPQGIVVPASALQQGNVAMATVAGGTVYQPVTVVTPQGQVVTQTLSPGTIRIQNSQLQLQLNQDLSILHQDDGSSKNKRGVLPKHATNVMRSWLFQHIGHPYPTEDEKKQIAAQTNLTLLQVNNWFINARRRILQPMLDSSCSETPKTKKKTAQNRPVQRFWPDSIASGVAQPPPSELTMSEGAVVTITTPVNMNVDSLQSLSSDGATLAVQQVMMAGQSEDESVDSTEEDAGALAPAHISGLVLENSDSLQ
The description is as above.

B1: PREP1_(1-436), wild-type recombinant (TR-FIA) (natural protein, UniProt P55347 1-436, looked up)
chain: MMATQTLSIDSYQDGQQMQVVTELKTEQDPNCSEPDAEGVSPPPVESQTPMDVDKQAIYRHPLFPLLALLFEKCEQSTQGSEGTTSASFDVDIENFVRKQEKEGKPFFCEDPETDNLMVKAIQVLRIHLLELEKVNELCKDFCSRYIACLKTKMNSETLLSGEPGSPYSPVQSQQIQSAITGTISPQGIVVPASALQQGNVAMATVAGGTVYQPVTVVTPQGQVVTQTLSPGTIRIQNSQLQLQLNQDLSILHQDDGSSKNKRGVLPKHATNVMRSWLFQHIGHPYPTEDEKKQIAAQTNLTLLQVNNWFINARRRILQPMLDSSCSETPKTKKKTAQNRPVQRFWPDSIASGVAQPPPSELTMSEGAVVTITTPVNMNVDSLQSLSSDGATLAVQQVMMAGQSEDESVDSTEEDAGALAPAHISGLVLENSDSLQ
notes: also called wild-type PREP1; PKNOX1; source: E. coli, purified
As to B1, the “binding relative to wild type” value with PBX1Δ43-55 is 80%.

B2: PBX1_(1-430), wild-type recombinant (natural protein, human, UniProt P40424 1-430, looked up)
chain: MDEQPRLMHSHAGVGMAGHPGLSQHLQDGAGGTEGEGGRKQDIGDILQQIMTITDQSLDEAQARKHALNCHRMKPALFNVLCEIKEKTVLSIRGAQEEEPTDPQLMRLDNMLLAEGVAGPEKGGGSAAAAAAAAASGGAGSDNSVEHSDYRAKLSQIRQIYHTELEKYEQACNEFTTHVMNLLREQSRTRPISPKEIERMVSIIHRKFSSIQMQLKQSTCEAVMILRSRFLDARRKRRNFNKQATEILNEYFYSHLSNPYPSEEAKEELAKKCGITVSQVSNWFGNKRIRYKKNIGKFQEEANIYAAKTAVTATNVSAHGSQANSPSTPNSAGSSSSFNMSNSGDLFMSVQSLNGDSYQGAQVGANVQSQVDTLRHVISQTGGYSDGLAASQMYSPQGISANGGWQDATTPSSVTSPTEGPGSVHSDTSN
notes: also called wild-type PBX1; purified recombinant human PBX1; source: E. coli, purified
B2 gave a dissociation constant (Kd) in assay [1] of 18 ± 4 nM. The binding result with PREP1 L66A and with PREP1 L129A was “binds” each time.
